We go through one molecule from US10385103B2, “Cell-permeable (ICP)-SOCS3 recombinant protein and uses thereof” (CELLIVERY THERAPEUTICS, INC., priority 2014, dated 2019).

Like-named read-outs stand apart in the source and are kept apart here.

The nature of data set [1]: Solubility/yield of SOCS3 recombinant proteins expressed and purified from E. coli. In kind it is physicochemical. The procedure:
Thereafter, the recombinant protein gene-introduced E. coli was inoculated in 7 ml of LB medium, and then incubated at 37° C. overnight. The E. coli was inoculated in 700 ml of LB medium and incubated at 37° C. until OD600 reached 0.6. To this culture medium, 0.6 mM of isopropyl-β-D-thiogalactoside (IPTG, Gen Depot, USA) was added as a protein expression inducer, followed by further incubation at 37° C. for 3 hours. This culture medium was centrifuged at 4° C. and 8,000 rpm for 10 minutes and a supernatant was discarded to recover a cell pellet. The cell pellet thus recovered was suspended in a lysis buffer (100 mM NaH2PO4, 10 mM Tris-HCl, 8 M Urea, pH 8.0), and cells were disrupted by sonication (on/off time: 30 sec/30 sec, on time 2 hours, amplify 40%), and centrifuged at 15,000 rpm for 30 min to obtain a soluble fraction and an insoluble fraction.
After purification, the proteins were put in a SnakeSkin Dialysis Tubing bag (pore size: 10000 mw, Thermo scientific, USA) and then they were dialyzed by physiological buffer (DMEM). The strain lysate where protein expression was not induced, the strain lysate where protein expression was induced by addition of IPTG, and purified proteins were loaded on SDS-PAGE to analyze protein expression characteristics and expression levels (FIGS. 19 and 20).
Solubility of aMTD/SD-fused SOCS3 proteins was scored on a 5 point scale compared with that of SOCS3 proteins lacking the solubilization domain.

In data set [2] the test system is AGS cells. In words: Antiproliferative activity, CellTiter-Glo Cell Viability Assay. Conditions: 10 μM, 96 hrs, 2% serum. In kind it is cell-based. On the procedure:
Antiproliferative activity were evaluated with the CellTiter-Glo Cell Viability Assay. AGS cells (3×10^3/well) were seeded in 96 well plates. The next day, cells were treated with DMEM (vehicle) or 10 μM HM165S3B, HM15S3B′(V28L) for 96 hrs in the presence of serum (2%). Proteins were replaced daily. Cell growth and survival were evaluated with the CellTiter-Glo Cell Viability Assay (Promega, Madison, Wis.). Measurements using a Luminometer (Turner Designs, Sunnyvale, Calif.) were conducted following the manufacturer's protocol.
Background: ATP-based viability assays read luminescence as a measure of living cells.

Data set [3] is described as follows: Bioavailability of FITC-labeled SOCS3 recombinant proteins after IV injection (PBMCs, splenocytes, hepatocytes, tissue sections). In kind it is in vivo, ICR mice. On the procedure:
To investigate BA of the iCP-SOCS3 (HM165S3B) recombinant proteins, ICR mice (Doo-Yeol Biotech Co. Ltd., Seoul, Korea) were intravenous (IV) injected with 600 μg/head of 10 μM FITC (Fluorescein isothiocyanate, SIGMA, USA)-labeled SOCS3 recombinant proteins (HS3B, HM165S3B) and after 15 min, 30 min, 1H, 2H, 4H, 8H, 12H, 16H, 24H, 36H, 48H, mice of each group were sacrificed. From the mice, peripheral blood mononuclear cells (PBMCs), splenocytes, and hepatocytes were separated.
Further, the spleen was removed and washed with PBS, and then placed on a dry ice and embedded in an O.C.T. compound (Sakura). After cryosectioning at 20 μm, tissue distributions of fluorescence-labeled-SOCS3 proteins in different organs was analyzed by fluorescence microscopy (Carl Zeiss, Gottingen, Germany).
After anesthesia with ether, ophthalmectomy was performed and the blood was collected therefrom using a 1 ml syringe. The collected blood was immediately put in an EDTA tube and mixed well. The blood was centrifuged at 4,000 rpm and 4° C. for 5 minutes, and plasma was discarded and only buffy coat was collected in a new microtube. 0.5 ml of RBC lysis buffer (Sigma) was added thereto, followed by vortexing. The microtube was left at room temperature for 5 minutes, and then centrifuged at 4,000 rpm and 4° C. for 5 minutes. 0.3 ml of PBS was added to a pellet, followed by pipetting and flow cytometry (FlowJo cytometric analysis software, Guava, Millipore, Darmstadt, Germany).
Mice were laparotomized and the spleen or liver were removed. The spleen or liver thus removed was separated into single cells using a Cell Strainer (SPL, Korea). These cells were collected in a microtube, followed by centrifugation at 4,000 rpm and 4° C. for 5 minutes. 0.5 ml of RBC lysis buffer was added thereto, followed by vortexing. The microtube was left at room temperature for 5 minutes, and then centrifuged at 4,000 rpm and 4° C. for 5 minutes. 0.5 ml of PBS was added to a pellet, followed by pipetting and flow cytometry (FlowJo cytometric analysis software, Guava, Millipore, Darmstadt, Germany).

The subject of data set [4] is HepG2 cells. In words: Transwell migration assay. Particulars: 24 hrs, compared with vehicle and non-permeable SOCS3. In kind it is cell-based, human. On the procedure:
(§1) The lower surface of Transwell inserts (Costar) was coated with 0.1% gelatin, and the membranes were allowed to dry for 1 hr at room temperature. The Transwell inserts were assembled into a 24-well plate, and the lower chamber was filled with growth media containing 10% FBS and FGF2 (40 ng/ml). Cells were added to each upper chamber at a density of 5×10^5, and the plate was incubated at 37° C. in a 5% CO2 incubator for 24 hrs. Migrated cells were stained with 0.6% hematoxylin and 0.5% eosin and counted.

The test system of data set [5] is Huh-7 cells. In words: Transwell migration assay. In kind it is cell-based, human. Conditions: 24 hrs, compared with vehicle and non-permeable SOCS3. On the procedure: as §1
In data set [6] the test system is SK-Hep-1 cells. The data set is described as follows: Transwell migration assay. In kind it is cell-based, human. Conditions: 24 hrs, compared with vehicle and non-permeable SOCS3. On the procedure:
as §1

The subject of data set [7] is Chang liver cells. In words: Induction of apoptosis, TUNEL assay. Particulars: 10 μM, 24 hr, 2% fetal bovine serum. In kind it is cell-based, human. The procedure: (§2) Apoptotic cells were analyzed using terminal dUTP nick-end labeling (TUNEL) assay with In Situ Cell Death Detection kit TMR red (Roche, 4056 Basel, Switzerland). Cells were treated for 24 hr with 10 μM HS3B or HM165S3B proteins with 2% fetal bovine serum and apoptotic cells were visualized by TUNEL staining. Treated cells were washed with cold PBS two times, fixed in 4% paraformaldehyde (PFA, Junsei, Tokyo, Japan) for 1 hr at room temperature, and incubated in 0.1% Triton X-100 for 2 min on the ice. Cells were washed with cold PBS twice, and treated TUNEL reaction mixture for 1 hr at 37° C. in dark, washed cold PBS three times and observed by fluorescence microscopy (Nikon, Tokyo, Japan). Cisplatin® (IC50: 30 μM) was used for reference drug.

Data set [8] relates to Huh7 cells. In words: Induction of apoptosis, TUNEL assay. Conditions: 10 μM, 24 hr, 2% fetal bovine serum. In kind it is cell-based, human. On the procedure: as §2
Setting [9] is: IV 600 μg/head FITC-labeled protein.

B1: HM165S3B: His-tagged recombinant protein of aMTD165, human SOCS3 and solubilization domain B; prototype improved cell-permeable SOCS3 (protein)
chain: MGSSHHHHHHSSGLVPRGSHMALAVPVALAIVPVTHSKFPAAGMETSRPLDTSLRLKTFSSKSEYQLVVNAVRKLQESGFYWSAVTGGEANLLLSAEPAGTFLIRDSSDQRHFFTLSVKTQSGTKNLRIQCEGGSFSLQSDPRSTQPVPRFDCVLKLVHHYMETPPPGAPSFPSPPTEPSSEVPEQPSAQPLPGSPPRRAYYIYSGGEKIPLVLSRPLSSNVATLQHLCRKTVNGHLDSYEKVTQLPGPIREFLDQYDAPLGSMAEQSDKDVKYYTLEEIQKHKDSKSTWVILHHKVYDLTKFLEEHPGGEEVLGEQAGGDATENFEDVGHSTDARELSKTYIIGELHPDDRSKIAKPSETL
modifications: Amino acid sequence of HM165S3B
Take B1: the solubility/yield result in data set [1] is “high solubility/yield”. Also, the “solubility (tendency to precipitate)” value in data set [1] (expressed and purified in E. coli) is “had little tendency to precipitate”. Also, the solubility/yield result in data set [1] (listed as SDB-fused iCP-SOCS3 recombinant protein) is reported as “showed the highest solubility/yield”. Also, the solubility/yield result in data set [1] (listed as aMTD165/SD-fused SOCS3 recombinant proteins) was “much higher than that of TAT/SD-fused SOCS3 or PolyR/SD-fused SOCS3 recombinant proteins”. In addition, the anti-proliferative activity result in data set [2] is reported as “high anti-proliferative effects on gastric carcinoma cells”. In data set [3] (IV), the “time maintained in tissues, depending on the tissues” value lay in the range of 8 to 16 h and the “time of delivery from blood to various tissues” value was not above 2 h. For the same molecule, in data set [3] (setting [9]), the “distribution in pancreas tissue maintained up to” value is given as “up to 8 hours”, the “permeability in hepatocytes maintained up to” value was “up to 16 hours”, the “permeability in splenocytes maintained up to” value is given as “up to 16 hours” and the “time of maximum permeability in PBMCs” value turned out to be 30 min. For the same molecule, in data set [3] (setting [9]), the “time of maximum permeability in hepatocytes” value came out at 15 min, the “time of maximum permeability in splenocytes” value is 2 h and the “time of very high distribution in pancreas tissue” value worked out at 2 h. Further, the “Transwell migration, HepG2” value in data set [4] is “significant inhibitory effect on their Transwell migration”. Besides, the “Transwell migration, Huh-7” value in data set [5] was “significant inhibitory effect on their Transwell migration”. Further, the “Transwell migration, SK-Hep-1” value in data set [6] is reported as “significant inhibitory effect on their Transwell migration”. In data set [7], the “induction of apoptosis (TUNEL), Chang liver cells” value is on record as “did not induce apoptosis”. For the same molecule, in data set [8], the “induction of apoptosis (TUNEL), Huh7” value is recorded as “considerably efficient inducer of apoptosis”.
